# Results as given in patent publication US20170096492A1, “DOSAGE AND ADMINISTRATION OF ANTI-IGF-1R, ANTI-ErbB3 BISPECIFIC ANTIBODIES, USES THEREOF AND METHODS OF TREATMENT [sequence]” (Merrimack Pharmaceuticals, Inc., priority 2014, published 2017).
# Entries after “also recorded” stand apart in the source; their conditions may differ.
# Legend:
# [1] = system: patients with solid tumors; test: Phase 1 dose escalation study, MM-141 monotherapy (Arm A): safety and disease response; assay type: in vivo, human
# Description: Adverse events that were reported with a frequency>15% included: vomiting (7/15), nausea (6/15), fatigue (4/15), abdominal pain (4/15), increased AP (4/15), dyspnea (4/15), diarrhea (3/15), anemia (3/15), increased AST (3/15), and rash (3/15). […] The safety, tolerability, PK and PD profiles support weekly and biweekly MM-141 dosing.
# [2] = system: hepatocellular carcinoma tumor biopsies; test: Immunohistochemistry of pre- and post-treatment tumor biopsies (cohort 4D); assay type: in vivo, human; conditions: post- vs pre-treatment, MM-141 20 mg/kg weekly, sorafenib-refractory HCC
# Description: Formalin fixed, paraffin embedded biopsy samples were sectioned at 5 μm, processed and stained for IGF-1R (G11 clone detection antibody, Ventana) and ErbB3 (clone D22 antibody, Cell Signaling Technology).
# [3] = system: BxPC-3 (KRAS wild type) pancreatic cancer cells; test: CTG cell viability, gemcitabine or paclitaxel with IGF-1 and HRG, two-dimensional cultures; assay type: cell-based, human; conditions: IGF-1 50 nM and HRG 10 nM, 2% serum, MM-141 500 nM
# Description: The cell viability assay (FIGS. 7A-B and 8A-B) was carried out using a CellTiter-Glo® (CTG) assay (Promega), which determines the number of viable cells in a culture based on quantitation of the ATP present. In FIGS. 7A-B, BxPC-3 cells were grown in low serum alone or with exogenous IGF-1 or HRG added (0-50 nM). […] For the cell viability assays described in FIGS. 8(A-B), (FIG. 8A) BxPC-3 and (FIG. 8B) CFPAC-1 cells were cultured in low (2%) serum alone or with a combination of IGF-1 (50 nM) and HRG (10 nM).
# [4] = system: BxPC-3 derived xenograft tumors; test: BxPC-3 xenograft PD, western blot; assay type: in vivo, mice; conditions: MM-141 30 mpk i.p. Day 0, 3, 6 co-administered with gemcitabine 150 mpk
# Description: For the PD studies described in FIGS. 6A-B and FIGS. 9 A-B, nu/nu female mice were inoculated with 8×10^6 DU145 or 5×10^6 BxPC-3 cells, respectively, in 1:1 Matrigel® suspension. […] Tumor lysates were generated and subjected to western blot analysis.
# [5] = system: platinum-sensitive (Peol, PEA1 and OvCAR5) and platinum-resistant (Peo4 and PEA2) ovarian cancer cells; test: CTG cell viability, paclitaxel with IGF-1 or HRG, three-dimensional ovarian cultures; assay type: cell-based; conditions: paclitaxel 10-100 nM, IGF-1 or HRG 0-50 nM, MM-141 1 μM, 2% serum
# Description: The cell viability assay (FIGS. 17A-B) was carried out using a CellTiter-Glo® (CTG) assay (Promega), which determines the number of viable cells in a culture based on quantitation of the ATP present. In FIGS. 17A-B, Peol, Peo4, PEA1, PEA2 and OvCAR5 cells were grown in 2% serum alone or with exogenous IGF-1 or HRG added (0-50 nM).
# [6] = system: ovarian cancer cells; test: Ovarian cancer cell western blot, AKT and ERK signaling; assay type: cell-based; conditions: MM-141 1 μM 1 hour, then IGF-1 50 nM or HRG 10 nM 10 minutes
# Description: In FIGS. 18A-F, Peol, Peo4, Ov90, PEA1, PEA2 and OvCAR8 ovarian cancer cells were plated on 10 cm plates (1-3×10^6 cells per plate) in 10% serum-containing medium and incubated overnight. […] Following treatment, cells were harvested in lysis buffer containing protease and phosphatase inhibitors and analyzed by western blotting. Phosphorylated and total levels of IGF-1R, ErbB3, AKT and ERK were determined using target-specific antibodies.
# [7] = system: ovarian cancer cell lines (PEA1, PEA2, OvCAR8); test: Growth-factor-induced proliferation, 3D in vitro assays (CTG); assay type: cell-based
# [8] = system: CFPAC-1 pancreatic cancer cells; test: Total ErbB3 and total IGF-1R ELISA (Example 20); assay type: cell-based, human; conditions: 50 nM, relative to vehicle control
# Description: CFPAC-1 pancreatic cancer cells were seeded at 65% confluence in 10% serum-containing medium and incubated in 96-well plates overnight. […] After treatment, cells were harvested and protein lysates generated. Changes in ErbB3 and IGF-1R levels across all treatments were evaluated by total ErbB3 or total IGF-1R ELISA, respectively.
# [9] = system: CFPAC-1 pancreatic cancer cells; test: pAKT (Ser473) ELISA after chemotherapy and ligand stimulation; assay type: cell-based, human; conditions: 24 hours
# Description: (§1) CFPAC-1 pancreatic cancer cells were seeded at 65% confluence in 10% serum-containing medium on 96-well plates overnight. […] Following incubation, cells were treated with (FIG. 24A) HRG (5 nM) or (FIG. 24B) IGF-1 (50 nM) for 15 minutes, where indicated. After treatment, cells were harvested and protein lysates generated. Changes in pAKT (Ser473) levels across all treatments were evaluated by pAKT ELISA, respectively. FIGS. 24(A-B) are bar graphs showing pAKT levels relative to ligand alone stimulated signals, which were normalized to 1.
# as §1, with “25A)” for “24A)”, “25B)” for “24B)”, “25(A-B)” for “24(A-B)”
# [10] = patients with event / 15 patients dosed, all dose levels
substance,measurement,setting,value
"MM-141: polyvalent bispecific antibody P4-G1-M1.3, anti-IGF-1R and anti-ErbB3; heavy chain SEQ ID NO: 3, light chain SEQ ID NO: 4",dose-limiting toxicities,"[1]; monotherapy 6, 12, 20 mg/kg q7d or 40 mg/kg q14d, 15 patients",No dose-limiting toxicities were observed; also recorded: No DLTs were observed
same,disease stabilization,[1]; patients with Ewing's Sarcoma (1) and parotid gland carcinoma (1),Disease stabilization was observed
same,adverse events reported with a frequency>15%: abdominal pain,[1]; [10],4/15
same,adverse events reported with a frequency>15%: anemia,[1]; [10],3/15
same,adverse events reported with a frequency>15%: diarrhea,[1]; [10],3/15
same,adverse events reported with a frequency>15%: dyspnea,[1]; [10],4/15
same,adverse events reported with a frequency>15%: fatigue,[1]; [10],4/15
same,adverse events reported with a frequency>15%: increased AP,[1]; [10],4/15
same,adverse events reported with a frequency>15%: increased AST,[1]; [10],3/15
same,adverse events reported with a frequency>15%: nausea,[1]; [10],6/15
same,adverse events reported with a frequency>15%: rash,[1]; [10],3/15
same,adverse events reported with a frequency>15%: vomiting,[1]; [10],7/15
same,ErbB3 level in tumor biopsy,[2],decreased; also recorded: Down-regulation
same,IGF-1R level in tumor biopsy,[2],decreased; also recorded: Down-regulation
same,resistance to cytotoxic effect of gemcitabine and paclitaxel caused by combination of IGF-1 and HRG,[3],resistance was reversed
same,"gemcitabine-induced receptor (IGF-1R, ErbB3) up-regulation",[4],reversed the receptor up-regulation
same,resistance to cytotoxic effect of paclitaxel caused by IGF-1 or heregulin,[5],resistance was reversed
same,IGF-1 and/or HRG induced upregulation in AKT and ERK survival signaling,[6],could be abrogated
same,IGF-1 and HRG growth-factor-induced proliferation,[7],blocks
same,total ErbB3 protein level,[8],potently down-regulates
same,total IGF-1R protein level,[8],potently down-regulates
same,"gemcitabine-induced increased sensitivity to HRG and IGF-1, pAKT (Ser473)",[9]; MM-141 500 nM with gemcitabine 1 μM,this effect is blocked
same,"paclitaxel-induced increased sensitivity to IGF-1, pAKT (Ser473)",[9]; MM-141 500 nM with paclitaxel 100 nM,this effect is blocked
